The values below come from publication PMC8453022, “A New Subfamily of Glycoside Hydrolase Family 30 with Strict Xylobiohydrolase Function” (Frontiers in Molecular Biosciences, 2021).

One data set concerns the target T1, AcXbh30A-CD (Acetivibrio clariflavus, UniProt G8LU16).
T1 construct: gene Clocl_1795; GH30 catalytic domain only, secretion leader and C-terminal type I dockerin removed, C-terminal His-tag, pET28 expression, ca. 50 kDa, apparent monomer
T1 sequence (G8LU16 29-455 limits assumed): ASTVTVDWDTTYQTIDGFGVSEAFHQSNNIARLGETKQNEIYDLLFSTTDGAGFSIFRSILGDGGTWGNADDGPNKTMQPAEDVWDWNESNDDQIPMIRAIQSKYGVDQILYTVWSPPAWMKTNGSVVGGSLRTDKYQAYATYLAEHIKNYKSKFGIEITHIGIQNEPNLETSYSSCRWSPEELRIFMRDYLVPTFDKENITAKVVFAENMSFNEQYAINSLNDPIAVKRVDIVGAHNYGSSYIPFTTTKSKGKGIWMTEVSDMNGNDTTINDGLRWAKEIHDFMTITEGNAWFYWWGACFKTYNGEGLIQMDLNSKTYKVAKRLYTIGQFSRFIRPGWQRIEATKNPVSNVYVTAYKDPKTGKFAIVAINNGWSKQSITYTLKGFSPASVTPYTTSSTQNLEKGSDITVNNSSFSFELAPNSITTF
Nature of the data set: pNP-X2 hydrolysis, non-linear competitive inhibition fit. The following applies: competitive product inhibition; substrate pNP-X2; 30 mM sodium acetate pH 4.0, 0.02 mg/ml BSA, 65 C; read-out: AcXbh30A pNP-X2 kinetic values^a ^, ^b / 116.4 ± 3.23 μM. The data set is classed as biochemical. The text has this:
pNP-X2 hydrolysis, non-linear competitive inhibition fit on AcXbh30A-CD

Substrate in the data set “purified protein”: O=[N+]([O-])c1ccc(O[C@@H]2OC[C@@H](O[C@@H]3OC[C@@H](O)[C@H](O)[C@H]3O)[C@H](O)[C@H]2O)cc1
The data set is described as follows: purified protein. The data set is classed as biochemical, Acetivibrio clariflavus. The following applies: 30 mM sodium acetate pH 4.0, 0.02 mg/ml BSA, 65 C, 10 min.

`OC1OC[C@@H](O[C@@H]2OC[C@@H](O)[C@H](O)[C@H]2O)[C@H](O)[C@H]1O` (some centres unmarked) [X2]: the Ki at AcXbh30A-CD worked out at 2400 µM.

B1: AcXbh30A-CD (Acetivibrio clariflavus DSM 19732) (protein)
chain: T1 sequence (G8LU16 29-455 limits assumed)
notes: GH30 catalytic domain only, secretion leader and C-terminal type I dockerin removed, C-terminal His-tag, pET28 expression, ca. 50 kDa, apparent monomer
Consider B1, for which, in “purified protein”, the Km was 116.4 ± 3.23 µM, the Vmax is reported as 183.1 ± 1.13 U mg^−1, the kcat turned out to be 152.7 s⁻¹ and the kcat/Km is given as 1,311.6 s^−1 mM^−1.
